Assay [1] addresses human TLR2 and human CD14 (293.hTLR2.hCD14 cells) (Homo sapiens, UniProt O60603). Briefly: Biopanning of pooled 10, 15 and 20 amino acid random peptide phage display libraries, sequencing of enriched clones. Conditions: percentage of all clones sequenced having given peptide sequence; 96 clones picked after 4 rounds of biopanning, TLRlo parental HEK293, TLRhi 293.hTLR2.hCD14. Type of assay: binding. Here is the method: (§1) Screening of phage display libraries by biopanning: Phage display libraries are screened for peptide TLR ligands according to the following procedure. The phage display library is incubated on an in vitro cultured monolayer of cells that express minimal amounts of the TLR of interest (TLR^lo) in order to reduce non-specific binding, and then transferred to an in vitro suspension culture of cells expressing the relevant TLR (TLR^hi) to capture phage with binding specificity for the target TLR. After several washes with PBS to remove phage remaining unbound to the TLR^hi cells, TLR^hi cell-bound phages are harvested by centrifugation. The TLR^hi cells with bound phage are incubated with E. coli (strain BLT5615) in order to amplify the phage. This process is repeated three or more times to yield a phage population enriched for high affinity binding to the target TLR.
Libraries of phage displaying random peptides 10, 15 and 20 amino acids in length were constructed essentially as described for the pentameric random peptide library, except that the phosphorylated oligonucleotides used were 30, 45, and 60 nucleotides in length, respectively.
(§2) Sequencing of phage inserts: Individual phage clones from the enriched pool are isolated via plaque formation in E. coli. The DNA inserts of individual phage are amplified in PCR using the commercially available primers T7SelectUP (5′-GGAGCTGTCGTATTCCAGTC-3′; SEQ ID NO: 37; Novagen, catalog #70005) and T7SelectDOWN (5′-AACCCCTCAAGACCCGTTTA-3′; SEQ ID NO: 38; Novagen, catalog #70006). The PCR product DNA is purified using the QIAquick 96 PCR Purification Kit (Qiagen) and subjected to DNA sequencing using T7SelectUP and T7SelectDOWN primers.
We also constructed 10, 15, and 20 amino acid random peptide phage display libraries in T7SELECT phage. These phage display libraries were pooled in equal proportion and then screened by biopanning as described in Example 3. […] Of the 96 clones analyzed three peptide sequences were particularly abundant (see Table 8). […]

For assay [2], the target named is T1, TLR2 (Homo sapiens, UniProt O60603). More on the design: host or cells: monocytes and epithelial cells. Conditions: cited from earlier work.
Target sequence in this assay (O60603 21-784, species assumed): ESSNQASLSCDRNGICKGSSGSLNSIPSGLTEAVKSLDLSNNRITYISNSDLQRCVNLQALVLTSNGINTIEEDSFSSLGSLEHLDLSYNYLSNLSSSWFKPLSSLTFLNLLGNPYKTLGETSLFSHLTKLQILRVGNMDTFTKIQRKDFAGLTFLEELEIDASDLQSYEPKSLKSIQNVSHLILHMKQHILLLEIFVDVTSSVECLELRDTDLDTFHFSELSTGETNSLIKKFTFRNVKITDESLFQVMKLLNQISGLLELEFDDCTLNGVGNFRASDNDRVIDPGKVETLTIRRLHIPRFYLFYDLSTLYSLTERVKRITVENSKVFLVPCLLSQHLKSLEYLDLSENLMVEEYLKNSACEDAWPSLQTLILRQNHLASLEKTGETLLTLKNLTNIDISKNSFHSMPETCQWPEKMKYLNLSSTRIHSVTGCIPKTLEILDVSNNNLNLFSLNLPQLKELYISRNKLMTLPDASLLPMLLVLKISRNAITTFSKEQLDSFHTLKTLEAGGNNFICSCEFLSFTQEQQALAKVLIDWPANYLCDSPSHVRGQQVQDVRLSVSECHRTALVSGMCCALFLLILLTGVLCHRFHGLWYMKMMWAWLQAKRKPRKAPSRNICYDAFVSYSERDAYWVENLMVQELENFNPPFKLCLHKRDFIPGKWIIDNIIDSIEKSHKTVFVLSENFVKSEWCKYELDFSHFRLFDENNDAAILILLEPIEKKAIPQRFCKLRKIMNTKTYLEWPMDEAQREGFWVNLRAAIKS
The target of assay [3] is T1, TLR2. Briefly: NF-κB-dependent luciferase reporter assay, 293 vs 293.hTLR2 cells. The class given is cell-based. To be noted: synthetic peptide on parental 293 and 293.hTLR2 cells, four to five hours at 37° C. As for the experimental part:
NF-κB-dependent luciferase reporter assay: Parental 293 cells and 293.hTLR2 cells (see Example 1, above) were incubated with an aliquot of test peptide four to five hours at 37° C. NF-κB-dependent luciferase activity was measured using the Steady-Glo Luciferase Assay System by Promega (E2510), following the manufacturer's instructions. Luminescence was measured on a microplate luminometer (FARCyte, Amersham) and expressed as relative luminescence units (RLU) after subtracting the background reading obtained by exposing cells to the DMEM medium alone.
The biological activity of the TLR2-binding peptides isolated by the screening method was confirmed using the isolated peptides in an NF-κB-dependent reporter gene assay. For this assay, a synthetic monomer of the DPDSG motif (SEQ ID NO: 5), or a concatemerized copy (DPDSG)5, was incubated on parental HEK293 cells containing an NF-κB-dependent luciferase reporter construct (293) and on TLR2-overexpressing HEK293 cells containing an NF-κB-dependent luciferase reporter construct (293.hTLR2, see Example 1, above). Luciferase activity was then measured. […] Thus, the TLR2-binding peptides identified by the screening assay are functional peptide TLR2 ligands.
Target sequence in this assay (O60603 21-784): as the sequence (O60603 21-784, species assumed) above
(In general: In a reporter assay the amount or activity of a reporter protein is the signal.)

The target of assay [4] is human TLR2 (293.hTLR2 cells) (Homo sapiens, UniProt O60603). Description: Biopanning of pentameric random peptide phage display library, sequencing of enriched clones. To be noted: percentage of all clones sequenced (n = 109) having given peptide sequence; after 4 rounds of biopanning, TLRlo parental HEK293, TLRhi 293.hTLR2; peptides with identity to known microbial proteins. Type of assay: binding. Here is the method: as §1
In each round of biopanning, the harvested phage that are bound to TLR^hi cells can be titred prior to amplification, amplified, and then titred again prior to initiation of the next cycle of biopanning. In this way, it is possible to determine the percent (%) of input phage in each cycle that are ultimately harvested from the TLR^hi cells. This calculation provides a round-by-round measure of enrichment within the phage display library for phage that display TLR-binding peptides.
Construction of random peptide libraries (RPL): A pentameric random peptide phage display library of T7SELECT phage was constructed essentially as described in Example 2. A pair of phosphorylated oligonucleotides with the sequence NNBNNBNNBNNBNNB (where N=A/G/C/T, B=G/C/T) flanked at the 5′ and 3′ ends by EcoRI and HindIII sites, respectively, was synthesized. Equimolar amounts of the oligonucleotides were annealed by heating for 5 min at 90° C. with gradual cooling to 25° C. The double stranded DNA was ligated to T7Select 10-3 bacteriophage vector (Novagen) that had been previously digested with EcoRI and HindIII. The ligation reactions were packaged in vitro and titred using the host E. coli strain […] that was grown in M9TB (Novagen), generating 2.5×10^7 clones, representing about 75% coverage of the library. The recombinant phage were subjected to several rounds of amplification to generate a total library of 1.35×10^12 phage, ensuring representation in excess of 5×10^4 fold for each clone in the library.
as §2
We constructed a pentameric random peptide phage display library in T7 phage. This phage library was then screened by biopanning as described in Example 3. For this screen, the TLR^lo cells were parental HEK293 (TLR2^−) cells, and the TLR^hi cells were HEK293 cells ectopically expressing human TLR2 (293.hTLR2, see Example 1, above). Phage bound to 293.hTLR2 cells were harvested, titred, and amplified prior to initiation of the each cycle of panning. In this way, it was possible to determine the % of input phage in each cycle that was ultimately harvested from the TLR2^hi cells.
After 4 rounds of biopanning, individual phage clones from the enriched pool were isolated via plaque formation in E. coli. […] phage clones were randomly picked for sequencing. Of the 109 individual clones examined the motif DPDSG was predominant (see Tables 6 and 7). […]

The target in another assay is T2, human TLR5 (human, UniProt O60602 21-858).
T2 construct: Expressed ectopically on HEK293 cells from the bought Invivogen plasmid pUNO-hTLR5 (293.hTLR5); also called hTLR5
Description: fliC-phage incubated on 293 and 293.hTLR5 cells; NF-κB luciferase read-out.

Sequence of human TLR2 and human CD14 (293.hTLR2.hCD14 cells) (O60603 21-784): as the sequence (O60603 21-784, species assumed) above
Sequence of human TLR2 (293.hTLR2 cells) (O60603 21-784): as the sequence (O60603 21-784, species assumed) above
T2 sequence (O60602 21-858 limits assumed): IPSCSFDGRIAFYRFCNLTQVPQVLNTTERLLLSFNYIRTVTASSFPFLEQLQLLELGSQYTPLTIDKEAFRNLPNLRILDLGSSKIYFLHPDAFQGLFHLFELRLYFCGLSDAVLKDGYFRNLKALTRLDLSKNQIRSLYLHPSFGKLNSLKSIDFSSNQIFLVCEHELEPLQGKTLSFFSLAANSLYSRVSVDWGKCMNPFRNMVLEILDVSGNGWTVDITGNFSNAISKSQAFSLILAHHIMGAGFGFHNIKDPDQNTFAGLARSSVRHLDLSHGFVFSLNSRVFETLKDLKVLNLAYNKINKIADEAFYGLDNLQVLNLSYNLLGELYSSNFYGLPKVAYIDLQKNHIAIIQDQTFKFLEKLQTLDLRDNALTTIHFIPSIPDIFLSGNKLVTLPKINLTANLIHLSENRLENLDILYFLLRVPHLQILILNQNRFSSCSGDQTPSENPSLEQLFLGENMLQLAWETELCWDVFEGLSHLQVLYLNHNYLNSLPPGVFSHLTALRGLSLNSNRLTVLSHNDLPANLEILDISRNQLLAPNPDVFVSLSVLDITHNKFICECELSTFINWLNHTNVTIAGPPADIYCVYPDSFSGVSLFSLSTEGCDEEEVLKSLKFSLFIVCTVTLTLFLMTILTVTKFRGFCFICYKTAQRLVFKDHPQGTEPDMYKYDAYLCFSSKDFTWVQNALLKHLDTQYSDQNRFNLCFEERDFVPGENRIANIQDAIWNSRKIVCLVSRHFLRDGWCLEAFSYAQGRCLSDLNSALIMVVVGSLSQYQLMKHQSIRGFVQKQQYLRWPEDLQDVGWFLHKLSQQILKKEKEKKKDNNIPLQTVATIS

With “KGGVGPVRRSSRLRRTTQPG [peptide TLR2 ligand from phage display]”, the “% Abundance” value in assay [1] is reported as 33.3%.
With “ALTTE (PEPTIDEALTTE) [pentapeptide derived from fimbrial subunit protein, known TLR2 ligand]”, the “activation of monocytes and epithelial cells via TLR2 signaling” value with TLR2 [2] (Ogawa et al. 1995, 2002, Asai et al. 2001) was “activate monocytes and epithelial cells via TLR2 signaling”.
Turning to “GRRGLCRGCRTRGRIKQLQSAHK [peptide TLR2 ligand from phage display]”, the “% Abundance” value in assay [1] stood at 16.1%.
On to “GLTTE (PEPTIDEGLTTE) [A to G substitution variant of ALTTE]”, for which the “antagonism of the wild-type peptide and full-length fimbrial protein” value with TLR2 [2] (single amino acid substitution (A to G), Ogawa et al. 1995) is “antagonize the activity of the wild-type peptide and full-length protein”.
As for “RWGYHLRDRKYKGVRSHKGVPR [peptide TLR2 ligand from phage display]”, in assay [1], the “% Abundance” value is 19.4%.
In the case of “(DPDSG)5 (DPDSGDPDSGDPDSGDPDSGDPDSG) [concatemerized copy of the DPDSG motif, solid phase synthesis]”, the “NF-κB-dependent luciferase reporter gene expression” value with TLR2 [3] is recorded as “activated luciferase reporter gene expression in a TLR2-dependent manner”.
In the case of “DPDSG [peptide TLR2 ligand; also made as synthetic monomer]”, in assay [4], the “% Abundance” value is on record as 46.8%. In addition, the “NF-κB-dependent luciferase reporter gene expression” value with TLR2 [3] is given as “activated luciferase reporter gene expression in a TLR2-dependent manner”.

B1: T7 phage displaying the E. coli flagellin (fliC) protein (ligand)
chain: MAQVINTNSLSLITQNNINKNQSALSSSIERLSSGLRINSAKDDAAGQAIANRFTSNIKGLTQAARNANDGISVAQTTEGALSEINNNLQRVRELTVQATTGTNSESDLSSIQDEIKSRLDEIDRVSGQTQFNGVNVLAKNGSMKIQVGANDNQTITIDLKQIDAKTLGLDGFSVKNNDTVTTSAPVTAFGATTTNNIKLTGITLSTEAATDTGGTNPASIEGVYTDNGNDYYAKITGGDNDGKYYAVTVANDGTVTMATGATANATVTDANTTKATTITSGGTPVQIDNTAGSATANLGAVSLVKLQDSKGNDTDTYALKDTNGNLYAADVNETTGAVSVKTITYTDSSGAASSPTAVKLGGDDGKTEVVDIDGKTYDSADLNGGNLQTGLTAGGEALTAVANGKTTDPLKALDDAIASVDKFRSSLGAVQNRLDSAVTNLNNTTTNLSEAQSRIQDADYATEVSNMSKAQIIQQAGNSVLAKANQVPQQVLSLLQG
notes: also called fliC phage; recombinant fliC-phage
Consider B1, for which, in the assay with human TLR5, the binding result was “binds”.

The values above are taken from patent US20090068224A1, “METHOD TO IDENTIFY POLYPEPTIDE TOLL-LIKE RECEPTOR (TLR) LIGANDS” (VAXINNATE CORPORATION, priority 2005, published 2009).
